Source: the supplement of paper PMC7125110
± gives the standard error. For part of these data: Variants at the floor of the assay were thinned out.

B1: glmS ribozyme (parent)
chain: AUAAAAGCGCCAGAACUACAGAAAUGUAGUUGACGAGGAGGAGGUUUAUCGAAUUUUCGGCGGAUGCCUCCAAA

Tests used:
Details in all cases: with glucosamine-6-phosphate
glucosamine-6-phosphate [1] = variants of: B1; assay: kcat; higher = faster cleavage; RNA array
How it was run: (§1)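 Glucosamine-6-phosphate (40 μM to 10 mM) in HEPES/KCl/Mg(OAc)2 buffer was flowed over sequenced MiSeq chips, and tiles were imaged over ~14 h. Barcoded ribozyme variants there had been transcribed in situ by E. coli RNA polymerase and were tracked through a hybridised Cy3 probe at 37 °C. One- or two-exponential decay fits to per-tile medians, normalised to baseline and to non-cleaving reference variants, gave kobs. kcat and KM came from weighted Michaelis–Menten fits across concentrations.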

glucosamine-6-phosphate [2] = variants of: B1; assay: KM; higher = weaker cofactor use; RNA array
How it was run: as §1

glucosamine-6-phosphate [3] = variants of: B1; assay: self-cleavage kobs at 640 uM GlcN6P; higher = faster cleavage; RNA array
How it was run: as §1

glucosamine-6-phosphate [4] = variants of: B1; assay: self-cleavage kobs at 2500 uM GlcN6P; higher = faster cleavage; RNA array
How it was run: as §1

glucosamine-6-phosphate [5] = variants of: B1; assay: self-cleavage kobs at 10000 uM GlcN6P; higher = faster cleavage; RNA array
How it was run: as §1

glucosamine-6-phosphate [6] = variants of: B1; assay: self-cleavage kobs at 40 uM GlcN6P; higher = faster cleavage; RNA array
How it was run: as §1

glucosamine-6-phosphate [7] = variants of: B1; assay: self-cleavage kobs at 160 uM GlcN6P; higher = faster cleavage; RNA array
How it was run: as §1

Variant	kcat (glucosamine-6-phosphate [1])	KM (glucosamine-6-phosphate [2])	self-cleavage kobs at 640 uM GlcN6P (glucosamine-6-phosphate [3])	self-cleavage kobs at 2500 uM GlcN6P (glucosamine-6-phosphate [4])	self-cleavage kobs at 10000 uM GlcN6P (glucosamine-6-phosphate [5])	self-cleavage kobs at 40 uM GlcN6P (glucosamine-6-phosphate [6])	self-cleavage kobs at 160 uM GlcN6P (glucosamine-6-phosphate [7])
U45G A52G	0.000403 ± 0.0001 s⁻¹	3100 ± 1400 µM	8.01e-05 ± 1.6e-05 s⁻¹	0.000142 ± 3.2e-05 s⁻¹	0.000345 ± 6e-05 s⁻¹	–	–
U47C A53C	0.00196 ± 0.00041 s⁻¹	1380 ± 440 µM	0.000497 ± 0.00012 s⁻¹	0.00163 ± 0.00044 s⁻¹	0.00173 ± 0.00032 s⁻¹	6.18e-05 ± 1.1e-05 s⁻¹	–
U46A U56G	0.00195 ± 0.00071 s⁻¹	–	0.000283 ± 6.8e-05 s⁻¹	0.000603 ± 0.00011 s⁻¹	0.00183 ± 0.00029 s⁻¹	–	9.87e-05 ± 1.5e-05 s⁻¹
U47A G59U	5.89e-05 ± 1.5e-06 s⁻¹	–	–	–	–	–	–
U46A C71G	0.00042 ± 3.7e-05 s⁻¹	2020 ± 370 µM	9.39e-05 ± 1.2e-05 s⁻¹	0.00025 ± 3.5e-05 s⁻¹	0.000346 ± 3.2e-05 s⁻¹	–	4.33e-05 ± 1.2e-05 s⁻¹
U45C G66U	0.000814 ± 9.5e-05 s⁻¹	2830 ± 630 µM	0.000151 ± 3.2e-05 s⁻¹	0.000326 ± 8.3e-05 s⁻¹	0.000653 ± 8.2e-05 s⁻¹	–	4.7e-05 ± 1.5e-05 s⁻¹
U45C U55A	0.00681 ± 0.0026 s⁻¹	5900 ± 2800 µM	0.000581 ± 0.00013 s⁻¹	0.00182 ± 0.00067 s⁻¹	0.00457 ± 0.0012 s⁻¹	5.89e-05 ± 1.4e-05 s⁻¹	–
U47A	0.0447 ± 0.0064 s⁻¹	2150 ± 360 µM	0.00994 ± 0.00044 s⁻¹	0.0201 ± 0.0011 s⁻¹	0.0412 ± 0.0016 s⁻¹	0.00084 ± 1.5e-05 s⁻¹	0.00266 ± 0.00018 s⁻¹
U47C	0.00454 ± 0.0006 s⁻¹	1380 ± 250 µM	0.00142 ± 4.2e-05 s⁻¹	0.00412 ± 0.00014 s⁻¹	0.00375 ± 9.2e-05 s⁻¹	0.000129 ± 2.6e-06 s⁻¹	0.000428 ± 1.8e-05 s⁻¹
U45G U54G	0.0116 ± 0.0048 s⁻¹	–	0.00187 ± 0.00046 s⁻¹	0.00436 ± 0.0015 s⁻¹	0.0084 ± 0.0012 s⁻¹	0.000213 ± 3.6e-05 s⁻¹	0.000252 ± 9.5e-05 s⁻¹
U46G U69G	7.96e-05 ± 5.9e-06 s⁻¹	–	0.000111 ± 1.6e-05 s⁻¹	7.44e-05 ± 1.1e-05 s⁻¹	7.71e-05 ± 5.3e-06 s⁻¹	5.51e-05 ± 9.4e-06 s⁻¹	7.35e-05 ± 1.7e-05 s⁻¹
U47A U57A	0.000331 ± 5.6e-05 s⁻¹	6360 ± 1900 µM	3.47e-05 ± 9.4e-06 s⁻¹	8.34e-05 ± 2e-05 s⁻¹	0.000205 ± 2.7e-05 s⁻¹	–	–
U46G A64G	0.0154 ± 0.0048 s⁻¹	4300 ± 1900 µM	0.00216 ± 0.00079 s⁻¹	0.00387 ± 0.001 s⁻¹	0.0119 ± 0.0016 s⁻¹	0.000157 ± 2.3e-05 s⁻¹	–
U46G C50U U69A	3.77e-05 ± 1.1e-05 s⁻¹	–	–	–	4.11e-05 ± 1.3e-05 s⁻¹	–	–
U46A C67G	0.000319 ± 2.1e-05 s⁻¹	2290 ± 290 µM	6.75e-05 ± 1.1e-05 s⁻¹	0.000187 ± 3.5e-05 s⁻¹	0.000254 ± 3.3e-05 s⁻¹	–	–
U46A C67A	0.00257 ± 0.00048 s⁻¹	1060 ± 330 µM	0.000988 ± 0.0002 s⁻¹	0.00266 ± 0.00097 s⁻¹	0.00209 ± 0.0006 s⁻¹	8.65e-05 ± 2.9e-05 s⁻¹	–
U46A U54C	0.00402 ± 0.0012 s⁻¹	3310 ± 1300 µM	0.000982 ± 0.00017 s⁻¹	0.00157 ± 0.00051 s⁻¹	0.00295 ± 0.00051 s⁻¹	4.31e-05 ± 1.1e-05 s⁻¹	0.000153 ± 3.9e-05 s⁻¹
U46A U54A	0.00331 ± 0.00047 s⁻¹	1420 ± 350 µM	0.000932 ± 0.00035 s⁻¹	0.00181 ± 0.00029 s⁻¹	0.00334 ± 0.00047 s⁻¹	0.000104 ± 1.9e-05 s⁻¹	0.000321 ± 8.4e-05 s⁻¹
U46G U55A	0.0163 ± 0.0061 s⁻¹	–	0.0028 ± 0.00069 s⁻¹	0.00456 ± 0.0013 s⁻¹	0.0133 ± 0.0027 s⁻¹	0.000166 ± 3.9e-05 s⁻¹	–
U46G U55G	0.00623 ± 0.0016 s⁻¹	2040 ± 690 µM	0.00125 ± 0.00021 s⁻¹	0.00414 ± 0.001 s⁻¹	0.00533 ± 0.00091 s⁻¹	0.000153 ± 2.1e-05 s⁻¹	0.000395 ± 8.6e-05 s⁻¹
U46G U55C	0.0109 ± 0.0051 s⁻¹	–	0.00171 ± 0.00029 s⁻¹	0.00371 ± 0.00062 s⁻¹	0.0103 ± 0.0013 s⁻¹	0.000264 ± 3.5e-05 s⁻¹	0.000497 ± 5.4e-05 s⁻¹
U46A C68U	0.00114 ± 0.00016 s⁻¹	2350 ± 540 µM	0.000233 ± 3.5e-05 s⁻¹	0.000743 ± 0.00014 s⁻¹	0.0009 ± 8.7e-05 s⁻¹	3.61e-05 ± 1.2e-05 s⁻¹	6.77e-05 ± 1.1e-05 s⁻¹
U46C A53C	0.002 ± 0.00044 s⁻¹	1380 ± 480 µM	0.000706 ± 0.00013 s⁻¹	0.00155 ± 0.00033 s⁻¹	0.00162 ± 0.0003 s⁻¹	7.57e-05 ± 1.7e-05 s⁻¹	0.000151 ± 4e-05 s⁻¹
U46G C70G	0.00028 ± 2.1e-05 s⁻¹	192 ± 44 µM	0.000265 ± 3.3e-05 s⁻¹	0.000263 ± 3.4e-05 s⁻¹	0.000258 ± 2.6e-05 s⁻¹	4.54e-05 ± 1.1e-05 s⁻¹	0.000122 ± 1.7e-05 s⁻¹
U45C C67U C68A	4.01e-05 ± 3.3e-06 s⁻¹	533 ± 230 µM	–	–	–	–	–
U47A U54A U65C	0.00046 ± 0.0001 s⁻¹	1750 ± 700 µM	0.000114 ± 2.7e-05 s⁻¹	0.000387 ± 0.0001 s⁻¹	0.000358 ± 8.9e-05 s⁻¹	–	–
U45G A48G	2.93e-05 ± 2.6e-06 s⁻¹	2270 ± 860 µM	–	–	–	–	–
U47A C61U	2.03e-05 ± 6.6e-06 s⁻¹	–	–	–	–	< 1e-05 s⁻¹	–
U46C A53U U65G	0.000127 ± 3.1e-05 s⁻¹	6880 ± 2800 µM	–	3.28e-05 ± 1.2e-05 s⁻¹	7.63e-05 ± 2.5e-05 s⁻¹	–	–
